Laboratory results as given in patent EP2292266A1.

What was measured:
ErbB2 (human) [1] = target: ErbB2 (human) (UniProt P04626); assay: FRET acceptor photobleaching
ErbB2 (human) [2] = target: ErbB2 (human) (UniProt P04626); assay: FRET acceptor photobleaching in fixed, HRG-treated SKBr3 cells (Alexa488 donor on Copine-III, Cy3 acceptor on ErbB2)
[3] = target: pTyr1248-containing peptide of ErbB2 (desthiobiotin-…-NH2, Tyr-phosphorylated form) (human); assay: SILAC peptide affinity pull-down from T47D lysates, MRM mass spectrometry; reference is the non-phosphorylated Tyr1248 peptide

Chain of Copine III (O75131 whole entry): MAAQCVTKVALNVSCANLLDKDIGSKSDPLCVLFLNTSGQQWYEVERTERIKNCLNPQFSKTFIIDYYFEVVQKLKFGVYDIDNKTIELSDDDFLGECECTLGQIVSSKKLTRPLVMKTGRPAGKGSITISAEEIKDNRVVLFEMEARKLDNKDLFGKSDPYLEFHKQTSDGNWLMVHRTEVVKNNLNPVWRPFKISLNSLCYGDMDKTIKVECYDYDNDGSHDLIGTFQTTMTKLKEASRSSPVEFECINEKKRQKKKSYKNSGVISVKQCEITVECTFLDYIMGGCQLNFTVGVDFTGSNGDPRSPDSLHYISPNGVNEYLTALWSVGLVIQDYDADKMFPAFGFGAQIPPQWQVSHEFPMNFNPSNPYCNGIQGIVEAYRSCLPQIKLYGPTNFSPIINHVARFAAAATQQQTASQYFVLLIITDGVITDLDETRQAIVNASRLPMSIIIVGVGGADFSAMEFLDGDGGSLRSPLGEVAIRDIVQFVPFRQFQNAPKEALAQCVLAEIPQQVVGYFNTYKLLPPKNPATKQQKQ

FRET efficiency (ErbB2 (human) [1]): 8 | FRET efficiency (E) (ErbB2 (human) [2]): 8.3 | quantification ratio (heavy/light peak area, pTyr peptide over Tyr peptide) [3]: 1.8
Substance: Copine III (from UniProt O75131 1-537)
